In publication PMC3643581:

Biological target: rPTB4 (pQE-PTB4) (UniProt P26599 1-557)
Test: UV cross-linking

Sequence of rPTB4 (pQE-PTB4) (P26599 whole entry): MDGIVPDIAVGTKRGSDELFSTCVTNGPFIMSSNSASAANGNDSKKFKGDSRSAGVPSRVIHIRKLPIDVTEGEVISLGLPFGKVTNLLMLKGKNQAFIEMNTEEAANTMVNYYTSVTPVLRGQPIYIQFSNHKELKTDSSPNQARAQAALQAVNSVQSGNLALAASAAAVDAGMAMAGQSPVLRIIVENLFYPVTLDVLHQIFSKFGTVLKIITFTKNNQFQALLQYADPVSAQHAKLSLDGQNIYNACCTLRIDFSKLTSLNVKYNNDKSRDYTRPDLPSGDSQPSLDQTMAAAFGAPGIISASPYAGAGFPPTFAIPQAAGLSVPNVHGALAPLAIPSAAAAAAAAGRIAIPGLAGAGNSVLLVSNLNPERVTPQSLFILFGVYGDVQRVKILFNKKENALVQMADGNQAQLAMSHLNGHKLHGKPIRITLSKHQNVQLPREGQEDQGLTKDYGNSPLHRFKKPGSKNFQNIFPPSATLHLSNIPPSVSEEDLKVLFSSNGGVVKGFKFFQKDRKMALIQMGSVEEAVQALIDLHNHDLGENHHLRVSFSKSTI

GGGAGACAAGCUCCUCCUGCGCUCUUUGCUUGCCCUGCUGUGUCGAAUU (ssRNA) [MBNL SELEX RNA D12]
binding result: no binding
